# Data: the supplement of paper PMC11316812
# ± gives the standard deviation of the averaged measurements.
# Assays:
# MCF7 = assay: percentage of EdU-negative (G0-arrested) nuclei per well, 72 h; higher = more G0 arrest; details: reference: sequence is the full UniProt precursor, the tested protein was the secreted form or ectodomain
# hTERT-HMEC = assay: as above; details: reference: sequence is the full UniProt precursor, the tested protein was the secreted form or ectodomain
# [1] = protein concentration 0.00771429 µM
# [2] = protein concentration 0.0771429 µM
# [3] = protein concentration 0.03125 µM
# [4] = protein concentration 0.3125 µM
# [5] = protein concentration 0.0225 µM
# [6] = protein concentration 0.01207 µM
# [7] = protein concentration 0.1207 µM
# [8] = protein concentration 0.0111429 µM
# [9] = protein concentration 0.111429 µM
# 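Also: secreted proteins added to cultured cells, EdU pulse at the end, nuclei found by Hoechst imaging, EdU status from nuclear versus surrounding ring intensity ratio, PBS as neutral control.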
sequence,measurement,setting,value
MALAALMIALGSLGLHTWQAQAVPILPLGLAPDTFDDTYVGCAEEMEEKAAPLLKEEMAHHALLRESWEAAQETWEDKRRGLTLPPGFKAQNGIAIMVYTNSSNTLYWELNQAVRTGGGSRELYMRHFPFKALHFYLIRALQLLRGSGGCSRGPGEVVFRGVGSLRFEPKRLGDSVRLGQFASSSLDKAVAHRFGNATLFSLTTCFGAPIQAFSVFPKEREVLIPPHEVFLVTRFSQDGAQSLVTLWSYNQTCSHFNCAYLGGEKRRGCVSAPGALGTGDLHMTKRHLQQP [Q96L15],percentage of EdU-negative,MCF7; protein concentration 0.016 µM,26.5 ± 3.2%
same,percentage of EdU-negative,MCF7; protein concentration 0.16 µM,29 ± 1.5%
same,percentage of EdU-negative,hTERT-HMEC; protein concentration 0.016 µM,5.18 ± 0.43%
same,percentage of EdU-negative,hTERT-HMEC; protein concentration 0.16 µM,7.23 ± 0.71%
MALDYLLLLLLASAVAAMEETLMDTRTATAELGWTANPASGWEEVSGYDENLNTIRTYQVCNVFEPNQNNWLLTTFINRRGAHRIYTEMRFTVRDCSSLPNVPGSCKETFNLYYYETDSVIATKKSAFWSEAPYLKVDTIAADESFSQVDFGGRLMKVNTEVRSFGPLTRNGFYLAFQDYGACMSLLSVRVFFKKCPSIVQNFAVFPETMTGAESTSLVIARGTCIPNAEEVDVPIKLYCNGDGEWMVPIGRCTCKPGYEPENSVACKACPAGTFKASQEAEGCSHCPSNSRSPAEASPICTCRTGYYRADFDPPEVACTSVPSGPRNVISIVNETSIILEWHPPRETGGRDDVTYNIICKKCRADRRSCSRCDDNVEFVPRQLGLTECRVSISSLWAHTPYTFDIQAINGVSSKSPFPPQHVSVNITTNQAAPSTVPIMHQVSATMRSITLSWPQPEQPNGIILDYEIRYYEKEHNEFNSSMARSQTNTARIDGLRPGMVYVVQVRARTVAGYGKFSGKMCFQTLTDDDYKSELREQLPLIAGSAAAGVVFVVSLVAISIVCSRKRAYSKEAVYSDKLQHYSTGRGSPGMKIYIDPFTYEDPNEAVREFAKEIDVSFVKIEEVIGAGEFGEVYKGRLKLPGKREIYVAIKTLKAGYSEKQRRDFLSEASIMGQFDHPNIIRLEGVVTKSRPVMIITEFMENGALDSFLRQNDGQFTVIQLVGMLRGIAAGMKYLAEMNYVHRDLAARNILVNSNLVCKVSDFGLSRYLQDDTSDPTYTSSLGGKIPVRWTAPEAIAYRKFTSASDVWSYGIVMWEVMSFGERPYWDMSNQDVINAIEQDYRLPPPMDCPAALHQLMLDCWQKDRNSRPRFAEIVNTLDKMIRNPASLKTVATITAVPSQPLLDRSIPDFTAFTTVDDWLSAIKMVQYRDSFLTAGFTSLQLVTQMTSEDLLRIGITLAGHQKKILNSIHSMRVQISQSPTAMA,percentage of EdU-negative,MCF7; [1],26.7 ± 1.5%
same,percentage of EdU-negative,MCF7; [2],23.4 ± 1.5%
same,percentage of EdU-negative,hTERT-HMEC; [1],4.82 ± 0.12%
same,percentage of EdU-negative,hTERT-HMEC; [2],5.86 ± 0.98%
MALEKSLVRLLLLVLILLVLGWVQPSLGKESRAKKFQRQHMDSDSSPSSSSTYCNQMMRRRNMTQGRCKPVNTFVHEPLVDVQNVCFQEKVTCKNGQGNCYKSNSSMHITDCRLTNGSRYPNCAYRTSPKERHIIVACEGSPYVPVHFDASVEDST,percentage of EdU-negative,MCF7; [3],25.8 ± 0.52%
same,percentage of EdU-negative,MCF7; [4],24.63 ± 0.044%
same,percentage of EdU-negative,hTERT-HMEC; [3],4.76 ± 0.11%
same,percentage of EdU-negative,hTERT-HMEC; [4],4.52 ± 0.25%
MALFAVFQTTFFLTLLSLRTYQSEVLAERLPLTPVSLKVSTNSTRQSLHLQWTVHNLPYHQELKMVFQIQISRIETSNVIWVGNYSTTVKWNQVLHWSWESELPLECATHFVRIKSLVDDAKFPEPNFWSNWSSWEEVSVQDSTGQDILFVFPKDKLVEEGTNVTICYVSRNIQNNVSCYLEGKQIHGEQLDPHVTAFNLNSVPFIRNKGTNIYCEASQGNVSEGMKGIVLFVSKVLEEPKDFSCETEDFKTLHCTWDPGTDTALGWSKQPSQSYTLFESFSGEKKLCTHKNWCNWQITQDSQETYNFTLIAENYLRKRSVNILFNLTHRVYLMNPFSVNFENVNATNAIMTWKVHSIRNNFTYLCQIELHGEGKMMQYNVSIKVNGEYFLSELEPATEYMARVRCADASHFWKWSEWSGQNFTTLEAAPSEAPDVWRIVSLEPGNHTVTLFWKPLSKLHANGKILFYNVVVENLDKPSSSELHSIPAPANSTKLILDRCSYQICVIANNSVGASPASVIVISADPENKEVEEERIAGTEGGFSLSWKPQPGDVIGYVVDWCDHTQDVLGDFQWKNVGPNTTSTVISTDAFRPGVRYDFRIYGLSTKRIACLLEKKTGYSQELAPSDNPHVLVDTLTSHSFTLSWKDYSTESQPGFIQGYHVYLKSKARQCHPRFEKAVLSDGSECCKYKIDNPEEKALIVDNLKPESFYEFFITPFTSAGEGPSATFTKVTTPDEHSSMLIHILLPMVFCVLLIMVMCYLKSQWIKETCYPDIPDPYKSSILSLIKFKENPHLIIMNVSDCIPDAIEVVSKPEGTKIQFLGTRKSLTETELTKPNYLYLLPTEKNHSGPGPCICFENLTYNQAASDSGSCGHVPVSPKAPSMLGLMTSPENVLKALEKNYMNSLGEIPAGETSLNYVSQLASPMFGDKDSLPTNPVEAPHCSEYKMQMAVSLRLALPPPTENSSLSSITLLDPGEHYC,percentage of EdU-negative,MCF7; [5],26.44 ± 0.24%
same,percentage of EdU-negative,MCF7; protein concentration 0.225 µM,24.9 ± 2%
same,percentage of EdU-negative,hTERT-HMEC; [5],4.25 ± 0.45%
same,percentage of EdU-negative,hTERT-HMEC; protein concentration 0.225 µM,5.8 ± 0.95%
MALFVRLLALALALALGPAATLAGPAKSPYQLVLQHSRLRGRQHGPNVCAVQKVIGTNRKYFTNCKQWYQRKICGKSTVISYECCPGYEKVPGEKGCPAALPLSNLYETLGVVGSTTTQLYTDRTEKLRPEMEGPGSFTIFAPSNEAWASLPAEVLDSLVSNVNIELLNALRYHMVGRRVLTDELKHGMTLTSMYQNSNIQIHHYPNGIVTVNCARLLKADHHATNGVVHLIDKVISTITNNIQQIIEIEDTFETLRAAVAASGLNTMLEGNGQYTLLAPTNEAFEKIPSETLNRILGDPEALRDLLNNHILKSAMCAEAIVAGLSVETLEGTTLEVGCSGDMLTINGKAIISNKDILATNGVIHYIDELLIPDSAKTLFELAAESDVSTAIDLFRQAGLGNHLSGSERLTLLAPLNSVFKDGTPPIDAHTRNLLRNHIIKDQLASKYLYHGQTLETLGGKKLRVFVYRNSLCIENSCIAAHDKRGRYGTLFTMDRVLTPPMGTVMDVLKGDNRFSMLVAAIQSAGLTETLNREGVYTVFAPTNEAFRALPPRERSRLLGDAKELANILKYHIGDEILVSGGIGALVRLKSLQGDKLEVSLKNNVVSVNKEPVAEPDIMATNGVVHVITNVLQPPANRPQERGDELADSALEIFKQASAFSRASQRSVRLAPVYQKLLERMKH,percentage of EdU-negative,MCF7; [6],25.4 ± 0.46%
same,percentage of EdU-negative,MCF7; [7],28.3 ± 0.63%
same,percentage of EdU-negative,hTERT-HMEC; [6],5.243 ± 0.015%
same,percentage of EdU-negative,hTERT-HMEC; [7],4.82 ± 0.7%
MALGLLIAVPLLLQAAPRGAAHYEMMGTCRMICDPYTAAPGGEPPGAKAQPPGPSTAALEVMQDLSANPPPPFIQGPKGDPGRPGKPGPRGPPGEPGPPGPRGPPGEKGDSGRPGLPGLQLTAGTASGVGVVGGGAGVGGDSEGEVTSALSATFSGPKIAFYVGLKSPHEGYEVLKFDDVVTNLGNHYDPTTGKFSCQVRGIYFFTYHILMRGGDGTSMWADLCKNGQVRASAIAQDADQNYDYASNSVVLHLDSGDEVYVKLDGGKAHGGNNNKYSTFSGFLLYPD [Q7Z5L3],percentage of EdU-negative,MCF7; [8],22.8 ± 1.6%
same,percentage of EdU-negative,MCF7; [9],30 ± 0.7%
same,percentage of EdU-negative,hTERT-HMEC; [8],5.39 ± 0.86%
same,percentage of EdU-negative,hTERT-HMEC; [9],5.7 ± 1.1%
